Source: US20220267377A1
Non-standard residues stand in square brackets, D forms with d. Primed or numbered codes have the meaning given here. No end group written: not given here. *: point of attachment. PEG8′ = polyethylene glycol linker with an average of 8 ethylene glycol units; fluorPhe = fluorinated phenylalanine; Palmitoyl = CCCCCCCCCCCCCCCC(=O)*; Tic = O=C(O)[C@@H]1Cc2ccccc2CN1; Aad = N[C@@H](CCCC(=O)O)C(=O)O; Nle = CCCC[C@H](N)C(=O)O; Nva = CCC[C@H](N)C(=O)O

T1: human Chemokine-like receptor 1, CMKLR1 (ProLink (PK) tagged GPCR in PathHunter β-Arrestin cells) (human) (UniProt Q99788)
T1 sequence: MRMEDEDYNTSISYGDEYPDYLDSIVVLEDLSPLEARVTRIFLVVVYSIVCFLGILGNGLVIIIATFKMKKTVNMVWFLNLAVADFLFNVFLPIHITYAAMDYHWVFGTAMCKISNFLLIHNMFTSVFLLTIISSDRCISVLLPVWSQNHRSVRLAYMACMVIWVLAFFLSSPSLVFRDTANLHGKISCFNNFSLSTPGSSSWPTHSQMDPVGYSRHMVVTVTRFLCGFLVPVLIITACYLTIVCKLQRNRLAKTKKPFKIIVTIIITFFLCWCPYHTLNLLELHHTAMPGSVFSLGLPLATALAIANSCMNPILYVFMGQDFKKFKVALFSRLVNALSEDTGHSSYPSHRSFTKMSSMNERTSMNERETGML


Biological target: T1, human Chemokine-like receptor 1, CMKLR1 (ProLink (PK) tagged GPCR in PathHunter β-Arrestin cells) (human)

EC50, PathHunter β-Arrestin recruitment assay, agonist format | Binder
< 0.5 nM | {Palmitoyl-PEG8′}-AG[dY]F[Nle]P[dS][Aad]FA[Tic][dA] [OK-109]
15 nM | {Palmitoyl-PEG8′}-[dA]G[dY]F[Nle]P[dS][Aad]F[dA][Tic][dA] [OK-111]
12.4 nM | {Palmitoyl-PEG8′}-AGFF[Nle]PSQFA[Tic][dA] [OK-115]
1.4 nM | {Palmitoyl-PEG8′}-[dA]G[dY]F[Nle]P[dS]Q[fluorPhe][dA][Tic][dA] (also: fluorPhe9: fluorine position not given here) [OK-112]
< 0.5 nM | {Palmitoyl-PEG8′}-[Nva]G[dY]F[Nle]P[dS]QF[dA][Tic][dA] [OK-113]
< 0.5 nM | {Palmitoyl-PEG8′}-AG[dY]F[Nle]P[dS]QFA[Tic][dS] [OK-114]
63.9 nM | {Palmitoyl-PEG8′}-GGFF[Nle]PSQFA[Tic][dS] [OK-116]

More lines, now with the values behind:

Binder | EC50, PathHunter β-Arrestin recruitment assay, agonist format
{Palmitoyl-PEG8′}-AAFY[Nle]PSQYA[Tic][dA] [OK-104] | 2.6 nM
{Palmitoyl-PEG8′}-AAYF[Nle]PSQY[dA]F[dA] [OK-107] | 1710 nM
{Palmitoyl-PEG8′}-GG[dY]FLP[dS]QF[dA][Tic]S [OK-101] | 2.6 nM
{Palmitoyl-PEG8′}-[dA]G[dY]F[Nle]P[dS]QF[dA][Tic][dA] [OK-102] | 2.3 nM
{Palmitoyl-PEG8′}-AAYF[Nle]PSQFA[Tic][dA] [OK-103] | 43 nM
{Palmitoyl-PEG8′}-AAFY[Nle]PTQFA[Tic][dA] [OK-106] | 32.5 nM
{Palmitoyl-PEG8′}-AGYF[Nle]PTNFA[Tic][dA] [OK-105] | 203 nM
